From patent US20240026407A1, “MODIFICATION OF SAPONINS” (GLAXOSMITHKLINE BIOLOGICALS SA, priority 2020, published 2024)

Columns and labels:
[1] = Example 9: screening of rhamnosidase variants for derhamnosylation of saponins in crude bark extract; assay type: biochemical, Quillaja saponaria
Method: Libraries of genetic variants encoding mutations in the wild type Kribbella flavida rhamnosidase (SEQ ID No. 1017) were prepared using molecular biology techniques, enzymes were prepared linked to a C-terminally located His-tag. Single monoclonal colonies were grown in 400 ul of expression medium and protein expressed. Cell pellets were lysed in 200 ul of the relevant buffer (Table 17).
Lysate was diluted appropriately in the relevant buffer to allow a lysate loading of the indicated % loading (1% loading corresponds to use of 2 ul original lysate in a 200 ul reaction).
Crude bark extract (CBE) obtained by aqueous extraction of Quillaja saponaria and containing at least 2.80 mg/ml QS-21 (by HPLC-UV) was adjusted to pH 6 by dropwise addition of 2M NaOH with stirring. The relevant concentration of the relevant glucosidase was added. The appropriate relative volume of pH 6 CBE (160 ul (for 80%) or 150 ul (for 75%)) was added to each well of the reaction plate. The reaction plate was sealed and incubated at the relevant temperature and time.
The reaction plate was quenched by adding 200 uL of MeCN (2% AcOH, 1 mg/mL hexanophenone) to each well of the plates. The quenched reaction plate was re-sealed and incubated at 20 deg C. with shaking for 10 min. The reaction plate was then centrifuged (10 min, 4 degC).
200 uL was transferred from each well of the quenched plate to the corresponding wells of a fresh 96 well plate and sealed. The plate was analysed by UV HPLC with the method described in Example 4.
Three key peaks of interest are apparent using this chromatography: Left Peak (retention time approximately 2.30-2.35 min) comprising mainly QS-17 family components; Middle Peak (retention time approximately 2.37-2.42 min) comprising mainly QS-18 family components and desglucosyl-QS-17 family components; and Right Peak (retention time approximately 2.44-2.50 min) comprising mainly QS-21 family components. Peak identity was supported by MS/MS.
Enzyme activity is calculated as the % conversion of the Left Peak present in the crude bark extract: […]

[2] = Example 10: derhamnosylation of saponins in crude bark extract (50%) using WT and engineered rhamnosidases R1 to R5; assay type: biochemical, Quillaja saponaria; conditions: 7 h, 50% CBE, 35 degC; for % Right Peak: starting CBE 26; for % Left Peak: starting CBE 30; for % Middle Peak: starting CBE 44
Method: Lyophilised powders from clarified cell lysate expressing glucosidases (from Example 8 WT glucosidase and engineered glucosidase polypeptides G1 to G5) and rhamnosidases (from Example 9 WT rhamnosidase and engineered rhamnosidase polypeptides R1 to R5) were dissolved in 200 mM sodium acetate aqueous solution at pH 5.8 to prepare the enzyme solutions at 4 fold the final reaction concentration as shown in Tables 19 and 20.
Each rhamnosidase solution was combined with an equal volume of 200 mM sodium acetate aqueous solution at pH 5.8 and separately with an equal volume of 200 mM sodium acetate aqueous solution at pH 5.8 containing 2 mg/ml glucosidase G5. This is a sufficient loading of glucosidase to effect complete hydrolysis of the relevant glucose moiety within 4 hours.
CBE was adjusted to pH of 6.0 to 6.2 with 2M sodium hydroxide and an equal volume added to the enzyme solution to prepare the reaction mix (i.e. 50% CBE concentration in reaction mix) and the concentration of glucosidase and/or rhamnosidase is shown in Tables 19 and 20. The reaction mix was heated to 35 degC for the time indicated in Tables 19 and 20, after which the reaction was quenched by addition of an equal volume of MeCN containing 2% acetic acid and shaken at room temperature for 10 mins prior to centrifugation (10 min, 4 degC) to remove particulates. Samples were analysed by UV HPLC using method of Experiment 4-4.
The change in composition of the Left, Middle and Right peaks is shown in Tables 19 and 20. The composition changes by the action of the enzymes depending on the presence or absence of the partner enzyme. The extent of reaction is proportional to the enzyme concentration and the reaction time under these conditions. The tables show data for enzyme concentrations and the reaction times providing for equivalent extents of reaction. The improvement resulting from the mutations introduced for each variant is equal to the fold change in enzyme concentration×time (i.e. fold improvement=(enzyme concentration×time) for preceding variant÷(enzyme concentration×time) for later variant). A cumulative fold improvement over the original enzyme variant is calculated by the product of the individual fold improvements.

[3] = rhamnosidase 1.25 mg/ml + glucosidase G5 0.5 mg/ml
[4] = rhamnosidase 1.25 mg/ml, no glucosidase

B1: Variant R2: engineered rhamnosidase polypeptide, variant of Kribbella flavida rhamnosidase SEQ ID No. 1017 (protein)
chain: MSFPAAPARLRFEHRTDPGPVLGIGTATPRLSWQVPTAPDDYRQAGYEVEIARGDAAPEQYTVDSADQVLVPWPGTPLAARESATVRVRVRGDGDWSQWSDPATVEAGLLSADDWTARFVSPRENAGHEAPAPLIGGVIDLPPDIAQARLYATAHGIYEPTLNGTRVGDEQLAPGWTAYEQRLRYQTYDVTDLVAPGENRLELLVGNGWYRGRMGFHGGHSLYGDRLAVLAQLEVTTATGEVKVLASDGTWTTRETNVLADDLYDGQHVDLRRTLGEPGPVDVLDADLSLLVAPDGPPVRVTDVLPAKAVTTSPAGKTLVDFGQNVVGRLRLRVRGGAAGDEIVLRHAEVLEDGELGVRPLRTAKATDSFVLAGPDEVTLEPTLTFHGFRYAEITGVPDLRAEDVEAVVVGSDLRRTGWFESSHPLLDRFHENVVWGMRGNFLDVPTDCPQRDERLGWTGDIQVFSPTASFLFDTAGFLTNWLADLIAEQHKDGSVPFVVPDVLRQPGPATAAWGDAATIVPWVLYERTGDAGLLARQLPSMRAWVDRMAGLAGDDLLWVGGFQFGDWLDPTAPPDDPFRAKADPDVLATAHLARSAEVVALAAEVVGAGELAREYAELAARVRQAFAAEYTTGSGRVLSDAATNYALALQWALLPTEAQRKRAGERLADLVRTAGFRISTGFVGTPLMADALADSGHPDLAYRLLLETGCPSWLYAVTMDATTVWERWDSMLPDGSINPGQMTSFNHYALGAVADWMHRRVAGLAPGDPGYRRIVVDPLFTAHLTKASARHLTPYGEAAVAWSRSGGRVRLEVTVPVGARARVAVPGESAPVEVGHGTHEWTADDVYGETPPLPADATIRQLIDHEPSWTTLAAAATRTGIVADDAELAGRLERYLDHPATELVDAVSPRGFSPSAEALHAELDSVLGR
modifications: Seq ID No. 1017 with mutations A143P, L214M, K219G, Q921H
For B1, the “% conversion (Right peak/Left Peak) (−neg control)” value ([1]; R2 round: 20 deg C, 20 h, lysate 1.25% v/v, CBE 80% v/v, 100 mM Potassium phosphate pH 6) was 1.09%, the “Cumulative FIOP from WT” value ([1]; R2 round: 20 deg C, 20 h, lysate 1.25% v/v, CBE 80% v/v, 100 mM Potassium phosphate pH 6, estimate) was 2.9 and the “Left Peak %” value ([1]; R2 round: 20 deg C, 20 h, lysate 1.25% v/v, CBE 80% v/v, 100 mM Potassium phosphate pH 6, negative control 23.63) was 22.76%. For the same molecule, the “Right Peak %” value ([1]; R2 round: 20 deg C, 20 h, lysate 1.25% v/v, CBE 80% v/v, 100 mM Potassium phosphate pH 6, negative control 26.10) was 26.27%, the “Middle Peak %” value ([1]; R2 round: 20 deg C, 20 h, lysate 1.25% v/v, CBE 80% v/v, 100 mM Potassium phosphate pH 6, negative control 50.27) was 50.97% and the “% conversion (Right peak/Left Peak)” value ([1]; R2 round: 20 deg C, 20 h, lysate 1.25% v/v, CBE 80% v/v, 100 mM Potassium phosphate pH 6, negative control 52.49) was 53.57%. The “FIOP (% area increase variant/pos control)” value ([1]; R2 round: 20 deg C, 20 h, lysate 1.25% v/v, CBE 80% v/v, 100 mM Potassium phosphate pH 6, positive control WT) was 2.9, the “% conversion (Right peak/Left Peak) (−neg control)” value ([1]; R3 round: 35 deg C, 18 h, lysate 0.4% v/v, CBE 75% v/v, 100 mM Sodium acetate pH 5.8) was 3.99% and the “Right Peak %” value ([1]; R3 round: 35 deg C, 18 h, lysate 0.4% v/v, CBE 75% v/v, 100 mM Sodium acetate pH 5.8, negative control 26.60) was 27.59%. For the same molecule, the “Left Peak %” value ([1]; R3 round: 35 deg C, 18 h, lysate 0.4% v/v, CBE 75% v/v, 100 mM Sodium acetate pH 5.8, negative control 28.91) was 25.57%, the “Middle Peak %” value ([1]; R3 round: 35 deg C, 18 h, lysate 0.4% v/v, CBE 75% v/v, 100 mM Sodium acetate pH 5.8, negative control 44.49) was 46.84% and the “% conversion (Right peak/Left Peak)” value ([1]; R3 round: 35 deg C, 18 h, lysate 0.4% v/v, CBE 75% v/v, 100 mM Sodium acetate pH 5.8, negative control 47.91) was 51.90%. For the same molecule, the “% change in Left Peak” value [2, 3] was −40%, the “% change in Middle Peak” value [2, 3] was −96% and the “% change in Right Peak” value [2, 3] was 309%. The “Cumulative Fold improvement in primary enzyme loading × time” value [2, 3] was 4, the “Fold improvement in primary enzyme loading × time” value [2, 3] was 2.0 and the “% Right Peak” value [2, 3] was 80%. For the same molecule, the “% Left Peak” value [2, 3] was 18%, the “% Middle Peak” value [2, 3] was 2% and the “% change in Left Peak” value [2, 4] was −39%. The “% change in Middle Peak” value [2, 4] was 19%, the “% change in Right Peak” value [2, 4] was 113% and the “Cumulative Fold improvement in primary enzyme loading × time” value [2, 4] was 4. For the same molecule, the “Fold improvement in primary enzyme loading × time” value [2, 4] was 2.0, the “% Right Peak” value [2, 4] was 29% and the “% Left Peak” value [2, 4] was 18%. The “% Middle Peak” value [2, 4] was 52%.
